Laboratory results: patent US20100184663A1 (UNIVERSITY OF UTAH RESEARCH FOUNDATION, published 2010)
Bridge positions count the residues as written; N and C are the ends. Square brackets hold non-standard residues; d marks the D form. Ends that are not written are not given here.

B1: PIE7-GK-PEG4 (peptide)
peptide: Ac-G[dA][dC][dD][dY][dP][dE][dW][dQ][dW][dL][dC][dA][dA]G[dK]-NH2
modifications: disulfide 3-12 (inferred); also: PEG4 attached at the C-terminus, order with amide not given here
B2: PEG5-(PIE13)2 (peptide)
peptide: [dH][dP][dC][dD][dY][dP][dE][dW][dQ][dW][dL][dC][dK][dL]G[dK]
modifications: disulfide 3-12 (inferred); also: dimer crosslinked via internal Lys with PEG5 linker

molecular target: HIV-1 gp41 (HXB2 strain) (HIV-1 HXB2, UniProt P04578 512-856); test: cell-based or functional assay

Which “IC50 (HXB2), pseudovirion entry” value does the source give for Ac-G[dA][dC][dD][dY][dP][dE][dW][dQ][dW][dL][dC][dA][dA]G[dK]-NH2 (disulfide 3-12 (inferred)) [PIE7-GK] here?
The value was 389 nM.

For Ac-G[dA][dC][dD][dY][dP][dE][dW][dQ][dW][dL][dC][dA][dA]G[dK][dK]-NH2 (disulfide 3-12 (inferred)) [PIE7-GKK], which “IC50 (HXB2), pseudovirion entry” value is on record?
The value was 382 nM.

Which “IC50 (HXB2), pseudovirion entry” value does the source give for B1 here?
The value was 351 nM.

How did the “IC50 (HXB2), pseudovirion entry” value turn out when Ac-[dH][dP][dC][dD][dY][dP][dE][dW][dQ][dW][dL][dC][dK][dL]G[dK]-NH2 (disulfide 3-12 (inferred)) [PIE13] was run?
Its value is 41.3 nM.

Which “IC50 (HXB2), pseudovirion entry” value does the source give for Ac-[dH][dP][dC][dD][dY][dP][dE][dW][dQ][dW][dL][dC][dR][dL]G[dK]-NH2 (disulfide 3-12 (inferred)) [PIE14] here?
The value was 33.1 nM.

How did the “IC50 (HXB2), pseudovirion entry” value turn out when Ac-[dH][dA][dC][dD][dY][dP][dE][dW][dQ][dW][dL][dC][dE][dL]G[dK]-NH2 (disulfide 3-12 (inferred)) [PIE15] was run?
The value was 66.7 nM.

For [dK]G[dA][dC][dD][dY][dP][dE][dW][dQ][dW][dL][dC][dA][dA] (disulfide 4-13 (inferred); also: dimer joined N- to C-terminus by PEG9 spacer) [N9C(PIE7)2], which “IC50 (HXB2), pseudovirion entry” value is on record?
The value was 0.329 nM.

molecular target: HIV-1 gp41 (JRFL strain) (HIV-1 JRFL); test: cell-based or functional assay

For Ac-G[dA][dC][dD][dY][dP][dE][dW][dQ][dW][dL][dC][dA][dA]G[dK]-NH2 (disulfide 3-12 (inferred)) [PIE7-GK], which “IC50 (JRFL), pseudovirion entry” value is on record?
The value was 15800 nM.

Ac-G[dA][dC][dD][dY][dP][dE][dW][dQ][dW][dL][dC][dA][dA]G[dK][dK]-NH2 (disulfide 3-12 (inferred)) [PIE7-GKK] was tested. Which “IC50 (JRFL), pseudovirion entry” value did it give?
The value was 19100 nM.

Which “IC50 (JRFL), pseudovirion entry” value does the source give for Ac-[dK]G[dA][dC][dD][dY][dP][dE][dW][dQ][dW][dL][dC][dA][dA]G[dK]-NH2 (disulfide 4-13 (inferred)) [K-PIE7-GK] here?
The value was 14800 nM.

How did the “IC50 (JRFL), pseudovirion entry” value turn out when B1 was run?
Its value is 13100 nM.

Ac-[dH][dP][dC][dD][dY][dP][dE][dW][dQ][dW][dL][dC][dE][dL]G[dK]-NH2 (disulfide 3-12 (inferred)) [PIE12] was tested. Which “IC50 (JRFL), pseudovirion entry” value did it give?
The value was 578 nM.

How did the “IC50 (JRFL), pseudovirion entry” value turn out when Ac-[dH][dP][dC][dD][dY][dP][dE][dW][dQ][dW][dL][dC][dK][dL]G[dK]-NH2 (disulfide 3-12 (inferred)) [PIE13] was run?
Its value is 1470 nM.

Ac-[dH][dP][dC][dD][dY][dP][dE][dW][dQ][dW][dL][dC][dR][dL]G[dK]-NH2 (disulfide 3-12 (inferred)) [PIE14] was tested. Which “IC50 (JRFL), pseudovirion entry” value did it give?
The value was 1050 nM.

Ac-[dH][dA][dC][dD][dY][dP][dE][dW][dQ][dW][dL][dC][dE][dL]G[dK]-NH2 (disulfide 3-12 (inferred)) [PIE15] was tested. Which “IC50 (JRFL), pseudovirion entry” value did it give?
The value was 1450 nM.

Which “IC50 (JRFL), pseudovirion entry” value does the source give for [dK]G[dA][dC][dD][dY][dP][dE][dW][dQ][dW][dL][dC][dA][dA] (disulfide 4-13 (inferred); also: dimer joined N- to C-terminus by PEG9 spacer) [N9C(PIE7)2] here?
The value was 313 nM.

Which “IC50 (JRFL), pseudovirion entry” value does the source give for [dH][dP][dC][dD][dY][dP][dE][dW][dQ][dW][dL][dC][dE][dL]G[dK] (disulfide 3-12 (inferred); also: dimer joined C- to C-terminus by PEG5 spacer) [C5C(PIE12)2] here?
Its value is 14.2 nM.

B2 was tested. Which “IC50 (JRFL), pseudovirion entry” value did it give?
The value was 15.1 nM.

With [dH][dP][dC][dD][dY][dP][dE][dW][dQ][dW][dL][dC][dE][dL]G[dK] (disulfide 3-12 (inferred); also: trimer, C-termini joined by PEG5 spacers) [C5C(PIE12)3] as the binder, how does the “IC50 (JRFL), pseudovirion entry” value read?
Its value is 2.77 nM.
